Legend:
[1] = target: pUL50 (Human cytomegalovirus) (UniProt P16791); assay: competition with pUL50-pUL53 interaction; settings: cited from earlier work
[2] = target: pUL53 hook peptide (Human cytomegalovirus) (UniProt P16794); settings: cited from earlier work
BFRF1 = target: T1, BFRF1 (Epstein-Barr virus, UniProt P03185); assay: fluorescence polarization
T1 chain: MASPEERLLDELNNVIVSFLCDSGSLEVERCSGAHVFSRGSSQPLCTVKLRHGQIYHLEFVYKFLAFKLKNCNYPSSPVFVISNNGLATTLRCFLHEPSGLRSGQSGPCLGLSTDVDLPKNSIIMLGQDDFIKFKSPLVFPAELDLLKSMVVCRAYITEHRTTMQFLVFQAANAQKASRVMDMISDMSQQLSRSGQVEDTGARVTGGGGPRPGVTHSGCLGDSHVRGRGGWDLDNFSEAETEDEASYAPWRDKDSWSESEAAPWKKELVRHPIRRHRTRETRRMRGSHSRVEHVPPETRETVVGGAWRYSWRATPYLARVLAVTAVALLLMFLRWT

pUL50 [3] = target: T2, pUL50 (Human cytomegalovirus, UniProt P16791); assay: competition with pUL50-pUL53 interaction
T2 chain: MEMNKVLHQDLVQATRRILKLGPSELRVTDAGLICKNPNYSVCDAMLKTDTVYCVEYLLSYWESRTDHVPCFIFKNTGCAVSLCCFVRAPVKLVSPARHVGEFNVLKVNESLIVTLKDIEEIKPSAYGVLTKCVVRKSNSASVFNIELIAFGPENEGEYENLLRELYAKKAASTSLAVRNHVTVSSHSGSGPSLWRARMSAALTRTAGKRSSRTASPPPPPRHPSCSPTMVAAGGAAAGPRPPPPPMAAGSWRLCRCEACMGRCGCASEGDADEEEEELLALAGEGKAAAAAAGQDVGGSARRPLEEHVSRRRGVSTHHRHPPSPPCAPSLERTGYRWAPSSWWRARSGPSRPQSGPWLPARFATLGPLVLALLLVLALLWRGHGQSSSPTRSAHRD

pUL50 [4] = target: T2, pUL50; assay: fluorescence polarization

Sequence of pUL53 hook peptide (Human cytomegalovirus) (P16794 whole entry): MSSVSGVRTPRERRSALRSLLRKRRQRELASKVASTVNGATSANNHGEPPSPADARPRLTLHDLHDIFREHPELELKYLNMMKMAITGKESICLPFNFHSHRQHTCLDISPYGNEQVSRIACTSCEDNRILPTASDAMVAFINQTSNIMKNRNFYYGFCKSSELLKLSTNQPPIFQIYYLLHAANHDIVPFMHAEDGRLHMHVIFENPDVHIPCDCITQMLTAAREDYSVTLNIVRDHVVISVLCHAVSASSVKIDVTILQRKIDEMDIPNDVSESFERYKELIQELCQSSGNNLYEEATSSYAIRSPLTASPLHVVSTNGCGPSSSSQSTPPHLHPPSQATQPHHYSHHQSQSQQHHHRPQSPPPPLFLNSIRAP

In the case of pUL53 hook peptide, the IC50 [1] is given as 110 nM.

In the case of pUL50 (from UniProt P16791), the Kd [2] is given as 120 nM.

DRSHFSLRDFFRGISANFELGKDFLREMNTPIH [BFLF2 hook peptide 78-110] gave a Kd (BFRF1) of 117 nM.

LTLHDLHDIFREHPELELKYLNMMKMAIT [pUL53 hook peptide] showed an IC50 (pUL50 [3]) of 50 nM.

LTLHDLHDIFREHPELELKYLNMMKMAIT [pUL53 hook peptide 59-87] gave a Kd (pUL50 [4]) of 120 nM.

— article PMC7354485 (2020)
